Numbering of substitutions follows the chain as printed.
B1: MSLN45 VHH-Fc fusion protein (Fc fusion)
chain: QVQLQESGGGLVQPGGSLRLSCAASGSIFSINAMGWYRQPPGKQRELVAATSWGGRTNYADSVEGRFTISRDNAKNTVYLQMNSLKPEDTAVYYCKLWDGSSWDIYWGQGTQVTVSS
notes: Tested as bivalent VHH-Fc expressed in EXPI293 and detected with anti-human IgG Fc; also called MSLN-VHH; MSLN nanobody 45; not shown: Fc of the VHH-Fc fusion
B2: MSLN51 VHH-Fc fusion protein (Fc fusion)
chain: B1 chain with P14T
notes: Tested as bivalent VHH-Fc expressed in EXPI293; also called MSLN-VHH; MSLN nanobody 51; not shown: Fc of the VHH-Fc fusion
B3: MSLN59 VHH-Fc fusion protein (Fc fusion)
chain: B1 chain with A23T, G26K, S27R, F29D
notes: Tested as bivalent VHH-Fc expressed in EXPI293; also called MSLN-VHH; MSLN nanobody 59; not shown: Fc of the VHH-Fc fusion
B4: MSLN57 VHH-Fc fusion protein (Fc fusion)
chain: B1 chain with L11M
notes: Tested as bivalent VHH-Fc expressed in EXPI293; also called MSLN-VHH; MSLN nanobody 57; not shown: Fc of the VHH-Fc fusion
B5: MSLN55 VHH-Fc fusion protein (Fc fusion)
chain: B1 chain with P14S, R19K, S27N, F29A
notes: Tested as bivalent VHH-Fc expressed in EXPI293; also called MSLN-VHH; MSLN nanobody 55; not shown: Fc of the VHH-Fc fusion
B6: MSLN47 VHH-Fc fusion protein (Fc fusion)
chain: B1 chain with P14A
notes: Tested as bivalent VHH-Fc expressed in EXPI293; also called MSLN-VHH; MSLN nanobody 47; not shown: Fc of the VHH-Fc fusion
B7: MSLN58 VHH-Fc fusion protein (Fc fusion)
chain: B1 chain with L11T, A23E, S25V, S27D, I28S, F29V
notes: Tested as bivalent VHH-Fc expressed in EXPI293; also called MSLN-VHH; MSLN nanobody 58; not shown: Fc of the VHH-Fc fusion
B8: MSLN50 VHH-Fc fusion protein (Fc fusion)
chain: QVQLQESGGGLVQPGGSLRLSCAASGSISKIAIMGWYRQPPGNERELIAIANMTGTGVYRDTVKGRFTIRRDNAKNMVYLQMNNLKSEDTGVYYCHARQLGVGSFESWGQGTQVTVSS
notes: Tested as bivalent VHH-Fc expressed in EXPI293; also called MSLN-VHH; MSLN nanobody 50; not shown: Fc of the VHH-Fc fusion
B9: MSLN46 VHH-Fc fusion protein (Fc fusion)
chain: QVQLQESGGGLVQAGGSLRLSCEASGHTDSYYPKAWFRQAPGKEREFVASIGWGGRMTAYADSVKGRFTVSRTYAKNTVYLQMNSLKPEDTAVYYCAAGIGWAPTADSGEYDYWGQGTQVTVSS
notes: Tested as bivalent VHH-Fc expressed in EXPI293; also called MSLN-VHH; MSLN nanobody 46; not shown: Fc of the VHH-Fc fusion
B10: MSLN52 VHH-Fc fusion protein (Fc fusion)
chain: B9 chain with R19S, E23A
notes: Tested as bivalent VHH-Fc expressed in EXPI293; also called MSLN-VHH; MSLN nanobody 52; not shown: Fc of the VHH-Fc fusion
B11: MSLN53 VHH-Fc fusion protein (Fc fusion)
chain: B9 chain with A14P, R19T
notes: Tested as bivalent VHH-Fc expressed in EXPI293; also called MLSN-53; MSLN-VHH; not shown: Fc of the VHH-Fc fusion
B12: MSLN48 VHH-Fc fusion protein (Fc fusion)
chain: QVQLQESGGGLVQPGGSLRLSCAASESIFSNYSASWYRQAPGKQRELVATIARTGSAFHLGSVKGRFTISRDNAKRTVYLQMNSLLPEDTAVYYCNVWDSWGQGTQVTVSS
notes: Tested as bivalent VHH-Fc expressed in EXPI293; also called MSLN-VHH; MSLN nanobody 48; not shown: Fc of the VHH-Fc fusion
B13: positive control antibody P4 (antibody, V domains shown)
VH: QVQLQQSGPGLVTPSQTLSLTCAISGDSVSSNSATWNWIRQSPSRGLEWLGRTYYRSKWYNDYAVSVKSRMSINPDTSKNQFSLQLNSVTPEDTAVYYCARGMMTYYYGMDVWGQGTTVTVSS
VL: QPVLTQSSSLSASPGASASLTCTLRSGINVGPYRIYWYQQKPGSPPQYLLNYKSDSDKQQGSGVPSRFSGSKDASANAGVLLISGLRSEDEADYYCMIWHSSAAVFGGGTQLTVLS
notes: an AHC probe was used in the ForteBio assay; also called positive antibody P4

What was measured:
Human MSLN-His antigen [1] = biological target: T1, Human MSLN-His antigen (human, UniProt Q13421 296-580, limits assumed); assay: ELISA, plate coated with 2 ug/ml MSLN-His, VHH-Fc diluted 2.5-fold from 200 nM, anti-human IgG Fc HRP, OD450
T1 construct: also called MSLN-his protein; human MSLN protein; not shown: His tag
T1 sequence (Q13421 other isoform, or with tags, fused parts or gaps limits assumed): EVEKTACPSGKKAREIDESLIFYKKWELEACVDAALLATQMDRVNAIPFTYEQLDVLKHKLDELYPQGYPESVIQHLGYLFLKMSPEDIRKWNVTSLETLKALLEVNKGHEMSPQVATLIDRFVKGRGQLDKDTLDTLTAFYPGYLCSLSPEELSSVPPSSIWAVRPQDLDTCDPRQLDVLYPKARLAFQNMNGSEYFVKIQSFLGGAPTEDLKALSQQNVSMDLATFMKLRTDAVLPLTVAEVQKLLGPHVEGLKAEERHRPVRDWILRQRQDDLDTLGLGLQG
Description: (§1) A high-absorption 384-well plate was coated with 2 μg/ml of MSLN-His […], and left standing at 4° C. overnight. The plate was washed three times with 1×PBST, and blocked with 5% of skimmed milk at room temperature for 2 h. During the blocking, the antibody MSLN-VHH was diluted 2.5-fold starting from a concentration of 200 nM for a total of 11 gradients. At the end of blocking, the plate was washed three times with 1×PT, into which were added corresponding diluted primary antibodies at 30 μl/well and incubated with shaking at room temperature for 1 h. The plate was washed three times with 1×PBST, into which were then added secondary antibodies Anti-human IgG Fc Antibody HRP (abcam, Item No. ab99759) and incubated at room temperature for 30-60 min. The plate was washed seven times with 1×PBST, into which was then added a TMB developer, and 2M phosphoric acid was added 3-5 min later to stop the reaction. The absorbance was read at a wavelength of 450 nm.

Human MSLN-His antigen [2] = biological target: T1, Human MSLN-His antigen; assay: BLI (ForteBio), AHC probe, nanobody at 100 nM, human MSLN-His 2-fold diluted from 100 nM
Description: MSLN nanobodies with flow cytometric binding activity were diluted to 100 nM and added into a 384-well plate. Human MSLN-His antigens were 2-fold diluted to 100 nM for a total of 7 gradients, and added into a 384-well plate. An AHC probe (Sartorius, Item No. 18-5060) was used, with the binding time set to 180 sec, the dissociation time to 360 sec, the baseline to 60 sec, and the regeneration cycle to three times, each for 5 sec. After then, the binding-dissociation curve was fitted using software to calculate the affinity of the antibodies.

Human MSLN-His antigen [3] = biological target: T1, Human MSLN-His antigen; assay: ELISA, plate coated with 2 ug/ml MSLN-His, antibody diluted 2.5-fold from 200 nM, anti-human IgG Fc HRP, OD450
Description: as §1

| Binder | EC50 (read off the curve) (Human MSLN-His antigen [1]) [nM] | Kd (Human MSLN-His antigen [2]) [nM] | EC50 (read off the curve) (Human MSLN-His antigen [3]) [nM] |
| --- | --- | --- | --- |
| B1 | ~0.7 |  |  |
| B2 | ~0.8 |  |  |
| B3 | ~0.5 |  |  |
| B4 | ~0.6 |  |  |
| B5 | ~0.5 |  |  |
| B6 | ~0.8 |  |  |
| B7 | ~0.4 |  |  |
| B8 | ~10 |  |  |
| B9 | ~1 | 2.15 |  |
| B10 | ~1 | 2.58 |  |
| B11 | ~0.8 | 1.41 |  |
| B12 | ~7 |  |  |
| B13 |  |  | ~0.8 |
